From patent US20170183403A1 (UNIVERSIT T Z RICH, published 2017)

Columns and labels:
Assay in all cases: peptide microarray (RepliTope), 15-mers
Reference peptide no. 4 = target: T1, Reference peptide no. 4
T1 construct: hIL-2 15-mer, first library, on microarray; also called peptide 4
T1 peptide: TQLQLEHLLLDLQMI
Procedure: (§1) Additional incubations are with unrelated antibodies from the same isotype (mouse control IgG2a/lambda and mouse control IgG2a/kappa), and secondary antibodies (anti-mouse IgG (Thermo 84545, label DL650) or anti-mouse IgG (JIR 115-175-072, Label Cy5)) to assess unspecific binding due to the detection antibody. The experiments are performed essentially as described in Maksimov P, et al. 2012, PLoS One 7:e34212. doi:10.1371/journal. pone. 0034212.
(§2) The determination of peptide-antibody binding was performed by RepliTope-analysis where the peptide microarray (triplicate) was incubated with the primary antibody followed by a fluorescently labelled secondary antibody directed against the Fc-part of the primary one. All steps were performed on a TECAN microarray processing station enabling highly reliable and reproducible washing and incubation steps. After performing the incubation steps and subsequent to the final washing steps (to remove the unbound secondary antibodies) the microarrays were dried using a nitrogen stream and scanned in a high resolution microarray scanning system with appropriate wavelength settings. Control incubations were performed with an unrelated antibody having the same isotype to exclude false positive signals.
(§3) The resulting images were analyzed und quantified using spot-recognition software GenePix (Molecular Devices). For each spot, the mean signal intensity was extracted (between 0 and 65535 arbitrary units). For further data evaluation, the MMC2 values were determined. The MMC2 equals the mean value of all three instances on the microarray. Except the coefficient of variation (CV)—standard-deviation divided by the mean value—is larger 0.5, in this case the mean of the two closest values (MC2) is assigned to MMC2.

Reference peptide no. 5 = target: T2, Reference peptide no. 5
T2 construct: hIL-2 15-mer, first library, on microarray; also called peptide 5
T2 peptide: QLEHLLLDLQMILNG
Procedure: as §1, §2, §3

Reference peptide no. 6 = target: T3, Reference peptide no. 6
T3 construct: hIL-2 15-mer, first library, on microarray; also called peptide 6
T3 peptide: HLLLDLQMILNGINN
Procedure: as §1, §2, §3

Reference peptide no. 13 = target: T4, Reference peptide no. 13
T4 construct: hIL-2 15-mer, first library, on microarray; also called peptide 13
T4 peptide: TRMLTFKFYMPKKAT
Procedure: as §1, §2, §3

Reference peptide no. 14 = target: T5, Reference peptide no. 14
T5 construct: hIL-2 15-mer, first library, on microarray; also called peptide 14
T5 peptide: LTFKFYMPKKATELK
Procedure: as §1, §2, §3

Reference peptide no. 15 = target: T6, Reference peptide no. 15
T6 construct: hIL-2 15-mer, first library, on microarray; also called peptide 15
T6 peptide: KFYMPKKATELKHLQ
Procedure: as §1, §2, §3

Reference peptide no. 17 = target: T7, Reference peptide no. 17
T7 construct: hIL-2 15-mer, first library, parental Cys replaced by Ser, on microarray; also called peptide 17
T7 peptide: KATELKHLQSLEEEL
Procedure: as §1, §2, §3

Reference peptide no. 18 = target: T8, Reference peptide no. 18
T8 construct: hIL-2 15-mer, first library, parental Cys replaced by Ser, on microarray; also called peptide 18
T8 peptide: ELKHLQSLEEELKPL
Procedure: as §1, §2, §3

Reference peptide no. 20 = target: T9, Reference peptide no. 20
T9 construct: hIL-2 15-mer, first library, parental Cys replaced by Ser, on microarray; also called peptide 20
T9 peptide: SLEEELKPLEEVLNL
Procedure: as §1, §2, §3

Reference peptide no. 25 = target: T10, Reference peptide no. 25
T10 construct: hIL-2 15-mer, first library, on microarray; also called peptide 25
T10 peptide: AQSKNFHLRPRDLIS
Procedure: as §1, §2, §3

Reference peptide no. 26 = target: T11, Reference peptide no. 26
T11 construct: hIL-2 15-mer, first library, on microarray; also called peptide 26
T11 peptide: KNFHLRPRDLISNIN
Procedure: as §1, §2, §3

Reference peptide no. 27 = target: T12, Reference peptide no. 27
T12 construct: hIL-2 15-mer, first library, on microarray; also called peptide 27
T12 peptide: HLRPRDLISNINVIV
Procedure: as §1, §2, §3

Reference peptide no. 28 = target: T13, Reference peptide no. 28
T13 construct: hIL-2 15-mer, first library, on microarray; also called peptide 28
T13 peptide: PRDLISNINVIVLEL
Procedure: as §1, §2, §3

Reference peptide no. 35 = target: T14, Reference peptide no. 35
T14 construct: hIL-2 15-mer, first library, parental Cys replaced by Ser, on microarray; also called peptide 35
T14 peptide: FMSEYADETATIVEF
Procedure: as §1, §2, §3

Reference peptide no. 37 = target: T15, Reference peptide no. 37
T15 construct: hIL-2 15-mer, first library, on microarray; also called peptide 37
T15 peptide: DETATIVEFLNRWIT
Procedure: as §1, §2, §3

Reference peptide no. 39 = target: T16, Reference peptide no. 39
T16 construct: hIL-2 15-mer, first library, parental Cys replaced by Ser, on microarray; also called peptide 39
T16 peptide: VEFLNRWITFSQSII
Procedure: as §1, §2, §3

Reference peptide no. 42 = target: T17, Reference peptide no. 42
T17 construct: second library: peptide 10 with F(62) to Ala; also called peptide 42
T17 peptide: INNYKNPKLTRMLTA
Procedure: as §1, §2, §3

Reference peptide no. 44 = target: T18, Reference peptide no. 44
T18 construct: second library: peptide 12 with F(62) to Ala; also called peptide 44
T18 peptide: PKLTRMLTAKFYMPK
Procedure: as §1, §2, §3

Reference peptide no. 45 = target: T19, Reference peptide no. 45
T19 construct: second library: peptide 13 with F(62) to Ala; also called peptide 45
T19 peptide: TRMLTAKFYMPKKAT
Procedure: as §1, §2, §3

Reference peptide no. 50 = target: T20, Reference peptide no. 50
T20 construct: second library: peptide 14 with Y(65) to Ala; also called peptide 50
T20 peptide: LTFKFAMPKKATELK
Procedure: as §1, §2, §3

Reference peptide no. 51 = target: T21, Reference peptide no. 51
T21 construct: second library: peptide 15 with Y(65) to Ala; also called peptide 51
T21 peptide: KFAMPKKATELKHLQ
Procedure: as §1, §2, §3

Reference peptide no. 52 = target: T22, Reference peptide no. 52
T22 construct: second library: peptide 11 with F(62) and Y(65) to Ala; also called peptide 52
T22 peptide: YKNPKLTRMLTAKFA
Procedure: as §1, §2, §3

Reference peptide no. 57 = target: T23, Reference peptide no. 57
T23 construct: second library: peptide 21 with L(92) to Ala; also called peptide 57
T23 peptide: EELKPLEEVLNAAQS
Procedure: as §1, §2, §3

Reference peptide no. 58 = target: T24, Reference peptide no. 58
T24 construct: second library: peptide 22 with L(92) to Ala; also called peptide 58
T24 peptide: KPLEEVLNAAQSKNF
Procedure: as §1, §2, §3

Measured: binding result

B1: NARA1 (antibody, mouse IgG2a, kappa, V domains shown)
VH: QVQLQQSGAELVRPGTSVKVSCKASGYAFTNYLIEWVKQRPGQGLEWIGVINPGSGGTNYNEKFKGKATLTADKSSSTAYMQLSSLTSDDSAVYFCARWRGDGYYAYFDVWGAGTTVTVSS
VL: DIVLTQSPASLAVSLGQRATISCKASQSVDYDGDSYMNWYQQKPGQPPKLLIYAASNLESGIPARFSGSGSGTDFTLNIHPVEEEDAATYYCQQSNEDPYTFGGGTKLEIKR
notes: Mouse monoclonal from hybridoma; Isotype controls used were mouse IgG2a; also called anti-IL2 (NARA1) antibody; monoclonal antibody NARA1
no binding: all assays above
